According to the RNAGym collection of RNA variant scans (doi:10.1073/pnas.2313332121):

B1: TPR t1 (parent)
chain: GACCAAUCUGCCCUCAGAGCUCGAGAACAUCUUCGGAUGCAGAGGAGGCAGGCUUCGGUGGCGCGAUAGCGCCAACGUCCUCAACCUCCAAUGCAUCCCACCACAUGAUGAUGCCUGAAGAGCCUUGGUUUUUUG

Variants of: B1
Assay: polymerase ribozyme fitness, log enrichment relative to wild type (log ratio); higher = more active; in vitro selection for triplet polymerase activity
Method in brief: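 After PCR construction and transcription, each subunit's mutant library from a heterodimeric triplet polymerase ribozyme was annealed with a biotinylated primer, the partner subunit and triplets. Incubation was frozen, at −7 °C, and extended constructs were gel-excised, bound to streptavidin beads and amplified by RT-PCR, in one selection round done in triplicate. Fitness is the logarithm of a genotype's enrichment divided by that of the wild type, from inverse-variance-weighted replicate averages of Illumina-sequenced inputs and outputs. The base of the logarithm is 2, and genotypes needed ≥10 input reads and ≥1 read per output.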

Question: With GACCAAUCUGCCCUCAGAGCUCGAGAACAUCUUCGGAUGCAGAGGAGGCAGGCUUCGGUGGCGCGAUAGCUCCAACGUCCUCAACCUCCAAUGCAUCCCACCACAUGAUGAUGCAUGAAGAGCCUUGGUUUUUUG [G71U C115A] as the variant, how does the “polymerase ribozyme fitness (log ratio)” value read?
Answer: The value was 1.51.

Question: With GACAAAUCUGCCCUCAGAGCUCGAGAACAUCUUCGGAUGCAGAGGAGGCAGGCUUCGGUGGCGCGAUAGCGCCAACGUCCUCAACCUCCAAUGCAUCCCACCACAUGAUGAUGCCUGAAGAGCCUUGCUUUUUUG [C4A G128C] as the variant, how does the “polymerase ribozyme fitness (log ratio)” value read?
Answer: The value was -1.53.

Question: Which “polymerase ribozyme fitness (log ratio)” value does the source give for GACCAAGCUGCCCUCAGAGCUCGAGAACAUCUUCGGAUGCAGAGGAGGCAGGCUUCGGUGGCGCGAUAGCGCCAACGUCCUCAACCUCCAAUGCAUCCCACCACAUGAUGAUACCUGAAGAGCCUUGGUUUUUUG [U7G G113A] here?
Answer: Its value is -0.761.

Question: With GACCAAUCUGCCCUCAGAGCUCGAGAACAUCUUCGGAUGCAGAGGAGGCAGGCUUCGGUGGCACGAUAGCGCCAACGUCCUUAAUCUCCUAUGCAUCUCACCACAUGAUGAUGCCUGUAGAGCCUUGGUUUUUUG [G63A C82U C85U A90U C98U A118U] as the variant, how does the “polymerase ribozyme fitness (log ratio)” value read?
Answer: Its value is -5.21.

Question: With GACCAAUCUGCCGUCAGAGCUCGAGAACAUCUUCGGAUGCAGAGGAGGCAGGCUUCGGUGACGCGAUAGGGCCAACGUCCUCAACCUCCAAUGCAUCCCACCACAUGAUGAUGCCUGAAGAGUCUUGGUUUUUUG [C13G G61A C70G C123U] as the variant, how does the “polymerase ribozyme fitness (log ratio)” value read?
Answer: The value was -5.1.

Question: For GACCAAACUGCCCUCAGGGAUCGAGAACAUCUUCGGAUACAGAGGAGGCAGGCUUCGGUGGCGCGAUAGUGCCAACGUCCUCAACCUCCAAUGCAUCCCACCACAUGAUGAUGCCCGAAUAGUAUUGGUUUUUUG [U7A A18G C20A G39A C70U U116C G120U C123U C124A], which “polymerase ribozyme fitness (log ratio)” value is on record?
Answer: The value was -6.7.

Question: With GACCAAUCUGCCCUCAGAGCUCGAGAACAUCUACGGAUGCAGAGGAGGCAGGCUUGGGUGGCGCGAUAGCUCCAACGUCCUCAACCUCCAAUUCAUCCUACCACAUGAUUAUGCCUGAAGAGCCUUCGUUUUUUG [U33A C56G G71U G93U C99U G110U G127C] as the variant, how does the “polymerase ribozyme fitness (log ratio)” value read?
Answer: The value was -6.53.

Question: With GACCAAUCUGCCCUCAGAGCUCGAGGACAUCUUCGGAUGCAGAGGAGGCAGGCUUCGGUGGCGCGAUAGCGCCAACGUCCUCAGCCUCCAAUGAUUCCCACCACAUGAUGAUGCCUGAAGAGCCUUGGUUUUUUG [A26G A84G C94A A95U] as the variant, how does the “polymerase ribozyme fitness (log ratio)” value read?
Answer: The value was -4.63.

Question: For GACCAAUCUGCCCUCAGAGCUCGAGAACAUCUUCGGAUGCAGAAGAGGCAGGCUUCGGUGGCGCGAUAGCUCCAACGUCCUCAACCUCCAAUGCAUCCCACCACAUGAUGAUGCCUGAAGAGCCUUGGUUUUUUG [G44A G71U], which “polymerase ribozyme fitness (log ratio)” value is on record?
Answer: The value was -1.33.

Question: With GACCAAUCUGCCCUCAGAGCUCGGGAACAUCUUCGGAUGCAGAGGAGGCAGACUUCGGUGGCGCGAUAGCGCCAACGUCCUCAACCUCCAGUGCAUCCCACCACAUGAUGAUGCCUGAAGAGCCUUGGUUUUUUG [A24G G52A A91G] as the variant, how does the “polymerase ribozyme fitness (log ratio)” value read?
Answer: The value was -3.17.

Question: Which “polymerase ribozyme fitness (log ratio)” value does the source give for GACCAAUCUGCCCUCAGAGCUCGAGAACAUCUUCUGAUGCAGAGGAGGAAGGCUUCGGUGGCGUGAUAGCGCCAACGUCCUCAACCUCCAAUGCAUCCCACCACAUGAUGAUGCCUGAAGAGCCUUGGUUUUUUG [G35U C49A C64U] here?
Answer: Its value is -6.12.

Question: Which “polymerase ribozyme fitness (log ratio)” value does the source give for GACCAAUCUGCCCUAAGAGCUCGAGAACAUCUUCGGAUGCAGAGGAGGCAGGCUUCGGUGGCGCGAUAGCGCCAACGCCCUCAACCUACAAUGCAUCCCACAACAUGAUGAUGCCUGAAGAGCCUUGGUUUUUUG [C15A U78C C88A C102A] here?
Answer: The value was -5.8.

Question: With GACCAAUCUGCCCUCAGAGCUCGAGCACAUCUUCGGAUGCAGAGGAGGCAGGCUUCGGUGGCGCGAUAUCGCCAACGUCCUCAACCUCCAAUGCAUCCCACCACAUGAUGAUGCCUGAAUAGCCUUGGUUUUUUG [A26C G69U G120U] as the variant, how does the “polymerase ribozyme fitness (log ratio)” value read?
Answer: Its value is -2.51.

Question: With GACCAAUCUGCCCUCAGAGCUCGAGAACAUCUUCGGAUGCAGAGCAGGCAGGCUUUGGUGGCGCGAUAGCGCCAACGUCCUCAACCUCCAAUGCAUCCCACCACAUGAUGAUGCCUGAAGAGCCUUGGUUUUUUG [G45C C56U] as the variant, how does the “polymerase ribozyme fitness (log ratio)” value read?
Answer: Its value is -1.86.

Question: With GACCAAUCUGCCCUCAGAGCUCGAGAACAUCUUCAGAUGCAGAGGAGGCAGGCUUCGGUGGCGCGAUAGCGCCAACUUCCUCAACCUCCAAUGCAUCCCACCACAUGAUGAUGCCUGAAGAGCCUUGGUUUUUUG [G35A G77U] as the variant, how does the “polymerase ribozyme fitness (log ratio)” value read?
Answer: The value was -3.89.

Question: Which “polymerase ribozyme fitness (log ratio)” value does the source give for GACCAAUCUGCCCUCAGAGCUCGAGAACAUCUUCGGAUGCAUAGGAGGCAGGCUUCGGUGGCGCGAUAGCGCCAACGUCCUCAACCUCCAAAGCAUCCCACCACAUGAUGAUGCCUGUAGAGCCUUGGUUUUUUG [G42U U92A A118U] here?
Answer: The value was -2.03.

Question: Which “polymerase ribozyme fitness (log ratio)” value does the source give for GACCAAUCUGCCCUCAGUGCUCGAGAACAUCUUCGGAUGCAGAGGAGGCAGGCUUCGGUGGCGCGAUAGCGCCAACGUCCUCAACCUCCAAUGCAACCCACCACAUGAUGAUGCCUGAAGAGCCUUGGUUUUUUG [A18U U96A] here?
Answer: The value was -3.21.

Question: For GACCAAUCUGCCCUCAGUGCUCGAGAACAUCUUCGGAUGCAGAGGAGGCAGGCUUCGGUGGCGCGAUAGCGCCAACGUCCUCAACCUCCAGUGCAUCCCACCACAUGAUGAUGCCUGAAGAGCCUUGGUUUUUUG [A18U A91G], which “polymerase ribozyme fitness (log ratio)” value is on record?
Answer: The value was -1.85.

Question: For GACCAAUCUGCCCUCAGAGCUCCAGAAUAUCUUCGGAUGCAGAGGAGGCAGGCUUCGGUGGCGCGAUAGCGCCAACGUCCUCAACCUCCAAUGCAUCCCACGACAUGAUGAAGCAUGAAAAGCCUUGGUUUUUUG [G23C C28U C102G U112A C115A G120A], which “polymerase ribozyme fitness (log ratio)” value is on record?
Answer: The value was -8.12.

Question: With GCCCAAUCUGCCCUCAGAGCUCGAGAACAUCUUCGGCUGCAGAGGAGGCAGGCUUCGGUGGCGCGAUAGCGCCAACGUCCUCAACCUCCAAUGUAACCCACCACAUGAUGACGUCUGAAGAGCCUUGGUUUUUUG [A2C A37C C94U U96A U112C C114U] as the variant, how does the “polymerase ribozyme fitness (log ratio)” value read?
Answer: The value was -4.55.

Question: For GACCAAUAUGCCCUCAGAGCUCGAGAACAUCUUCGGAUGCAGAGGAGGCAGGCUUCGGUGGCGCGAUAGCGCCAACGUCCUCAACCUCCAAUGCAUCCCACCACAUGAUUAUGCCUGAAGAGCCUUGGUUUUUUG [C8A G110U], which “polymerase ribozyme fitness (log ratio)” value is on record?
Answer: Its value is -0.434.
